Results as given in paper doi:10.1101/2020.05.26.111013.

Target: PelX^C232S (Pseudomonas protegens Pf-5)
Assay: SEC

Substance: PelX^C232S (enzyme)
- stoichiometry N: 2
